Assay results as given in patent publication US20200317816A1 (Novartis, published 2020).

What was measured:
[1] = target: anti-FXI/FXIa antibody NOV1401; experiment: cell-based or functional assay
[2] = target: anti-FXI/FXIa antibody NOV1401; experiment: cell-based or functional assay; remark: listed apart in the source
[3] = target: T1, anti-FXI/FXIa antibody NOV1401; experiment: SPR (ProteOn XPR36), NOV1401 amine-coupled on the chip, Fab as analyte 0.125-4 nM, Langmuir 1:1 fit, 25 C; n=1
T1 construct: It was amine-coupled to the chip in SPR; In SET it was titrated in solution, and biotinylated NOV1401 served only as the capture reagent on the plate
Procedure: SPR binding experiments were performed on a ProteOn XPR36 instrument (Bio-Rad Laboratories, Inc.) in PBS/T buffer (50 mM phosphate, 150 mM NaCl, pH 7.4, 0.005% v/v Tween-20) at 25° C. […] Unreacted groups were blocked by injecting 1 M ethanolamine.
Blank surfaces were used for background corrections. There was no need to regenerate surfaces since the ProteOn protein interaction array system allows to run up to six binding experiments on an identical surface in parallel.
Data processing and analysis including kon, koff, and KD determination were performed with the ProteOn Manager™ software version 3.1.0.6. Sensorgrams were fitted by applying a Langmuir 1:1 binding model (Rmax set at global) and dissociation constants were calculated from kon and koff.

[4] = target: T1, anti-FXI/FXIa antibody NOV1401; experiment: solution equilibrium titration (SET), constant Fab with NOV1401 titrated in solution, free Fab captured on biotinylated NOV1401, 1:1 fit; average of n=3
Procedure: After washing the plate again three times, 30 μl of detection reagent (LumiGLO Peroxidase Chemiluminescent Substrate, KPL#54-61-01) was added to each well. Electrochemiluminescence (ECL) signals were generated and detected immediately with a luminescence imager (SpectraMax M5, Molecular Devices, LLC).
Average ECL-signals were calculated from duplicate measurements within each assay. Data were baseline adjusted by subtracting the lowest value from all data points and plotted against the corresponding antigen concentration.

T1 sequence (VH, as listed by the source, chain 1 of 2): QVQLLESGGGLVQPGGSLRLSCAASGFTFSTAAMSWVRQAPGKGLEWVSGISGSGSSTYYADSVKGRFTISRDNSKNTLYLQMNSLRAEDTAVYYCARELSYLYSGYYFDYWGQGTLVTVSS
T1 sequence (VL, as listed by the source, chain 2 of 2): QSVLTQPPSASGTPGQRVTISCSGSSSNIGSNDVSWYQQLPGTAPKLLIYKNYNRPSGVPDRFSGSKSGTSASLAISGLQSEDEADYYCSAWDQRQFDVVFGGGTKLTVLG

B1: IDT2 anti-NOV1401 Fab (Fab, V domains shown)
VH: QVQLVESGGGLVKPGGSLRLSCAASGFTFSSAAVHWVRQAPGKGLEWVGRIKSKADGGTTDYAAPVKGRFTISRDDSKNTLYLQMNSLKTEDTAVYYCARDSPSISSYSIPYFSGMDVWGQGTLVTVSS
VL: DIQMTQSPSSLSASVGDRVTITCRASQGIRAWLNWYQQKPGKAPKLLIYAASSLQSGVPSRFSGSGSGTDFTLTISSLQPEDFATYYCHQYITHPPTFGQGTKVEIKR
notes: Human Fab; The heavy chain entry is VH-CH1 (Fd); also called antidote
percentage reversal of NOV1401 aPTT prolongation, NOV1401/anti NOV1401 ratio 1/1 (n/n) [1]: 21% | percentage reversal of NOV1401 aPTT prolongation, NOV1401/anti NOV1401 ratio 1/3 (n/n) [1]: 42% | percentage reversal of NOV1401 aPTT prolongation, NOV1401/anti NOV1401 ratio 1/10 (n/n) [1]: 55% | percentage reversal of the NOV1401 effect on thrombin generation (TGA), NOV1401/anti NOV1401 ratio 1/1 (n/n) [2]: 55% | percentage reversal of the NOV1401 effect on thrombin generation (TGA), NOV1401/anti NOV1401 ratio 1/3 (n/n) [2]: 57% | percentage reversal of the NOV1401 effect on thrombin generation (TGA), NOV1401/anti NOV1401 ratio 1/10 (n/n) [2]: 61% | Kd [3]: 0.23 nM | Kd [4]: 0.1 nM
